Numbering of substitutions follows the chain as printed.
Experiments:
CD3 (Sino Biological) = assay: ELISA on CD3, curve fit
Protocol: Next day, plate was washed once with 200 μl of PBST, and then a surface blocking was performed at room temperature with 5% skim milk for 1-2 hours. […] Each well was then washed three times with 200 μl of PB ST to remove unbound samples. Horseradish peroxidase (HRP)-conjugated anti-human IgG (Fab specific) antibodies (Sigma, USA) were added to wells at a ratio of 1:1000 for a reaction at room temperature. After three times of washing with 200 ul of PBST, a color reaction of HRP was induced using TMB solution (GEhealthcare, USA) in a volume of 100 μl/well. The reaction was terminated by using a stop solution (2.5 M H₂SO₄, 100 μl/well). A spectrophotometer was used to measure the absorbance at a wavelength of A450 to calculate the binding affinity.

PD-L1 expressed on cells = PD-L1 expressed on cells (UniProt Q9NZQ7 19-290, limits assumed); assay: cell-based or functional assay
PD-L1 expressed on cells, sequence (Q9NZQ7 19-290 limits assumed): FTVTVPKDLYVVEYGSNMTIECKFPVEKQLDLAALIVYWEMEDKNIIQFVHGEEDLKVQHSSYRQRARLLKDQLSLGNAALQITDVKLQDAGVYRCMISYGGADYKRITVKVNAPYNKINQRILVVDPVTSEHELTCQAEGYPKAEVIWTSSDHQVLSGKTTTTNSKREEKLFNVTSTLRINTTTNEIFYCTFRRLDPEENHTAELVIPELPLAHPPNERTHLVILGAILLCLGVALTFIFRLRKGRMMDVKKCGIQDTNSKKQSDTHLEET

CD3 (Sino Biological), sequence (P07766 23-126, chain 1 of 2): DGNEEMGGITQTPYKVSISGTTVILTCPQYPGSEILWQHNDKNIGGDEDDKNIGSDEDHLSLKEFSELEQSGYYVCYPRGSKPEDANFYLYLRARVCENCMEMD
CD3 (Sino Biological), sequence (P04234 22-105, chain 2 of 2, further chain): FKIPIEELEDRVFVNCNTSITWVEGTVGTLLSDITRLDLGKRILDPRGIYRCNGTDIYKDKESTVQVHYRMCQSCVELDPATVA

B1: UCHT1 (antibody, V domains shown)
VH: EVQLQQSGPELVKPGPSMKISCKASGYSFTGYTMNWVKQSHGKNLEWMGLINPYKGVSTYNQKFKDKATLTVDKSSSTAYMELLSLTSEDSAVYYCARSGYYGDSDWYFDVWGQGTTLTVFS
VL: DIQMTQTTSSLSASLGDRVTISCRASQDIRNYLNWYQQKPDGTVKLLIYYTSRLHSGVPSKFSGSGSGTDYSLTISNLEQEDIATYFCQQGNTLPWTFAGGTKLEIKR
notes: A bought antibody (BioLegend); also called parental anti-CD3 antibody
B1 was tested. Which Bmax (CD3 (Sino Biological)) did it give?
Its Bmax is 3.67 OD 450 nm.

B2: ACE-05-VL2 (other)
heavy: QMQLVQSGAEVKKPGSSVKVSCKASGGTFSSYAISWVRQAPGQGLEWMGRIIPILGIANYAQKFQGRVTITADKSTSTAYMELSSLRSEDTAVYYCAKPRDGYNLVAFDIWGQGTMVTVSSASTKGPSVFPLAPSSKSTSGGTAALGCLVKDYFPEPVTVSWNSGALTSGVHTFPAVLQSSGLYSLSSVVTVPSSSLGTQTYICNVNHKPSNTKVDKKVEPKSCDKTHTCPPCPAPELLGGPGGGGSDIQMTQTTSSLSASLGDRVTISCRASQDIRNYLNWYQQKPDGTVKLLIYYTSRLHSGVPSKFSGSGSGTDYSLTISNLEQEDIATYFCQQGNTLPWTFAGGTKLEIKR
light: QLVLTQPPSVSGAPGQRVTISCTGSSSNIGAGYDVHWYQQLPGAAPKLLIYGDINRPSGVPDRFSGSKSGISASLAITGLQAEDEADYYCQSYDSSLSGGVFGGGTKLTVLRTVAAPSVFIFPPSDEQLKSGTASVVCLLNNFYPREAKVQWKVDNALQSGNSQESVTEQDSKDSTYSLSSTLTLSKADYEKHKVYACEVTHQGLSSPVTKSFNRGEC
Which “EC50 (read off the curve), PD-1/PD-L1 Blockade Bioassay” value (PD-L1 expressed on cells) does the source give for B2 here?
Its value is roughly 0.09 µg/mL.

B3: ACE-05 (bispecific antibody)
heavy 1: not shown
heavy 2: not shown
light: B2 light
notes: also called ALiCE; ACE-05-VH + ACE-05-VL + ACE-05-LC
Which Bmax (CD3 (Sino Biological)) does the source give for B3 here?
Its Bmax is 3.97 OD 450 nm.

B4: ACE-09 (bispecific antibody)
heavy 1: not shown
heavy 2: not shown
light: B2 light with T113S
notes: also called ACE-09-VH + ACE-09-VL + ACE-09-LC
Which Bmax (CD3 (Sino Biological)) does the source give for B4 here?
Its Bmax is 4.04 OD 450 nm.
